Data as given in patent US20080131962.

Legend:
[1] = test system: ZFN pair E490K/E490K (synthetic construct); test: cleavage_in_vitro; settings: same variant on L and R
[2] = test system: ZFN pair E490K/Q486E (synthetic construct); test: cleavage_in_vitro; settings: average of both orientations
[3] = test system: ZFN pair E490K/Q486E:I499L (synthetic construct); test: cleavage_in_vitro; settings: average of both orientations
[4] = test system: ZFN pair E490K/wt (synthetic construct); test: cleavage_in_vitro; settings: average of both orientations
[5] = test system: ZFN pair E490K:I538K/Q486E (synthetic construct); test: cleavage_in_vitro; settings: average of both orientations
[6] = test system: ZFN pair E490K:I538K/wt (synthetic construct); test: cleavage_in_vitro; settings: average of both orientations
[7] = test system: ZFN pair L+/R+ (E490K:I538K both) (synthetic construct); test: cleavage_in_vitro; settings: cleavage lost through lack of dimerization, not of ZFP binding
[8] = test system: ZFN pair L+/R- (L-E490K:I538K, R-Q486E:I499L) (synthetic construct); test: cleavage_in_vitro
[9] = test system: ZFN pair L-/R+ (L-Q486E:I499L, R-E490K:I538K) (synthetic construct); test: cleavage_in_vitro; settings: 2 mM MgCl2, 37 C 2 h
[10] = test system: ZFN pair L-/R- (Q486E:I499L both) (synthetic construct); test: cleavage_in_vitro; settings: cleavage lost through lack of dimerization, not of ZFP binding
[11] = test system: ZFN pair Lwt/Rwt (wild-type FokI cleavage domains) (synthetic construct); test: cleavage_in_vitro; settings: six-fold diluted ZFN, FokI buffer pH 8.5, 2 mM MgCl2, 10 uM ZnCl2, 37 C 2 h
[12] = test system: ZFN pair Q486E/Q486E (synthetic construct); test: cleavage_in_vitro; settings: same variant on L and R
[13] = test system: ZFN pair Q486E/wt (synthetic construct); test: cleavage_in_vitro; settings: average of both orientations
[14] = test system: ZFN pair Q486E:I499L/wt (synthetic construct); test: cleavage_in_vitro; settings: average of both orientations; printed I449L in table
[15] = test system: ZFN pair L+/R+ in cells (synthetic construct); test: cell_activity; settings: forced homodimer of cleavage domains
[16] = test system: ZFN pair L+/R- in cells (synthetic construct); test: cell_activity; settings: HEK293 GFP gene correction
[17] = test system: ZFN pair L-/R+ in cells (synthetic construct); test: cell_activity; settings: HEK293 GFP gene correction
[18] = test system: ZFN pair L-/R- in cells (synthetic construct); test: cell_activity; settings: forced homodimer of cleavage domains
[19] = test system: ZFN pair Lwt/Rwt in cells (synthetic construct); test: cell_activity; settings: HEK293 GFP gene correction

Sequence	cleavage activity relative to wild type (fraction of wt/wt) [1]	cleavage activity relative to wild type (fraction of wt/wt) [2]	cleavage activity relative to wild type (fraction of wt/wt) [3]	cleavage activity relative to wild type (fraction of wt/wt) [4]	cleavage activity relative to wild type (fraction of wt/wt) [5]	cleavage activity relative to wild type (fraction of wt/wt) [6]	cleavage activity relative to wild type (fraction of wt/wt) [7]	activity ([8]; 2 mM MgCl2, 37 C 2 h)	cleavage activity relative to wild type (fraction of wt/wt) ([8]; average of L+/R- and L-/R+, printed I449L in table)	activity [9]	cleavage activity relative to wild type (fraction of wt/wt) [10]	activity [11]	cleavage activity relative to wild type (fraction of wt/wt) [12]	cleavage activity relative to wild type (fraction of wt/wt) [13]	cleavage activity relative to wild type (fraction of wt/wt) [14]	activity (% GFP-positive cells) [15]	activity (% GFP-positive cells) [16]	activity (% GFP-positive cells) [17]	activity (% GFP-positive cells) [18]	activity (% GFP-positive cells) [19]
TGTTCGGAGCCGCTTTAACCCACTCTGTGGAAGTGCT (double strand) [LR heterodimer target]	0.96	0.96	0.97	1	0.32	0.74	0	50 % cleaved	0.48	50 % cleaved	0	61 % cleaved	0.19	0.68	0.48	–	–	–	–	–
TGTTCGGAGCCGCTTTAACCCACTCTGTGGAAGTGCT (double strand) [IL2Rgamma ZFN target in eGFP reporter or endogenous locus]	–	–	–	–	–	–	–	–	–	–	–	–	–	–	–	0.02	1.98	1.71	0.12	1.27
